Here are results for 84 variants from the RNAGym collection of RNA variant scans (doi:10.1093/molbev/msab373).

First the molecules themselves.
B1: Azoarcus group I ribozyme (parent)
chain: GUGCCUUGCGCCGGGAAACCACGCAAGGGAUGGUGUCAAAUUCGGCGAAACCUAAGCGCCCGCCCGGGCGUAUGGCAACGCCGAGCCAAGCUUCGGCGCCUGCGCCGAUGAAGGUGUAGAGACUAGACGGCACCCACCUAAGGCAAACGCUAUGGUGAAGGCAUAGUCCAGGGAGUGGCGAAAGUCACACAAACCGG

The data set covers variants of B1. As to the kind of experiment: reverse-splicing fitness (ratio to wild type); higher = more active; in vitro selection; Mg2+ level not given. The gist of the method:
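An in vitro group I ribozyme library with randomized positions was T7-transcribed and gel-purified. In triplicate, 10 pmol RNA in EPPS pH 7.5 was reacted with 50 pmoles of a 30-nt RNA substrate for 1 h at 37 °C across several added MgCl2 levels (1–48 mM), then stopped with EDTA. Products were reverse transcribed from a substrate-complementary primer, PCR-amplified and sequenced (HiSeq 4000). Fitness is a variant's read proportion after selection over that before, normalised to wild type.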
A120G A145U C150G C169A U176C: the reverse-splicing fitness amounted to 0.0317.
For C82G A120U C150A U176G, the reverse-splicing fitness worked out at 0.00569.
With C82U A145G C150G C169G, the reverse-splicing fitness came to 0.00814.
Under C82A A111U A120C A145C C150A C169A U176G stands 0.00772.
For A111U A120G A145G C150A C169A U176C, the reverse-splicing fitness came out at 0.0255.
Under C82G A111C A120C A145G U176A stands 0.0172; under C82G A111C A120C A145G C169A U176C, 0.0254; under C82A A111U A120U A145U C150G C169A, 0.00467.
In the case of C82A A120C C169G U176C it was 0.0259.
In the case of C82G A145U C150A C169U U176C, the reverse-splicing fitness was 0.013.
For C82U A111U A120G A145G C150A C169G, the reverse-splicing fitness was found to be 0.00828.
Under A120U A145G C150G C169G stands 0.0353.
In the case of C82G A111C A120U A145G C150A C169U U176A, the reverse-splicing fitness worked out at 0.00632.
In the case of C82A A120G C150G C169G U176A it was 0.00669.
In the case of A111G A120G A145U C150U U176A it was 0.0608; in that of C82G A111G A120C A145G C150G C169G U176A, 0.0109.
Under C82U A111G A145C C150A C169U stands 0.00807; under A120U A145C, 0.787; under C82U A111U A120U A145G U176G, 0.00331.
Turning to C82G A111C A120U A145U C169U U176G, the reverse-splicing fitness was determined as 0.00187.
Under C82A C150U C169U stands 0.0139.
For C82G A120G C169A U176G, the reverse-splicing fitness worked out at 0.00403.
In the case of A111C A120C C169U U176A it was 0.031.
C82A A120C A145C C169G U176C: the reverse-splicing fitness stood at 0.0239.
In the case of A111U A120C A145U C150A C169G it was 0.00755; in that of C82G A120C A145G C150U C169U U176C, 0.0155.
With A145U C150U U176C, the reverse-splicing fitness is 0.816.
On to C82G A111C A120U A145G C169G U176C, for which the reverse-splicing fitness came to 0.00363.
As to C82U A111G A145U C169G U176C, the reverse-splicing fitness is 0.00876.
Take A111C A120G C150U U176C: the reverse-splicing fitness was 0.0344.
Take A111U A120U A145C C169U U176A: the reverse-splicing fitness was 0.00945.
For the variant C82G A111G A145C C150A C169A U176A, the reverse-splicing fitness was 0.0136.
As for A111G A120G A145U C150G U176C, the reverse-splicing fitness came to 0.0217.
In the case of C82A A111U C150A it was 0.0266; in that of C82G A111U C150G C169G U176A, 0.0074.
For A111C A120C A145G C150A U176A, the reverse-splicing fitness was 0.0428.
In the case of C82A A120G A145C C150G C169A U176C, the reverse-splicing fitness came to 0.00611.
Under C82U A120C A145U C150U C169A U176A stands 0.0108.
With A111U A120G C150A C169A U176C, the reverse-splicing fitness turned out to be 0.0201.
In the case of C82U A111C A120C C150A C169G U176C, the reverse-splicing fitness turned out to be 0.0184.
In the case of A111U A120G A145G C150U C169A U176C it was 0.0274; in that of A111C A120U A145C C150A C169U U176A, 0.00457.
Under A111C A120G C150U C169G U176A stands 0.0233.
In the case of A120U A145C C150U C169U U176A it was 0.0309; in that of C82G A111C A120G A145C C169U, 0.00967; in that of C82G A111U A145G C150U U176G, 0.0447.
For C82G A111C U176G, the reverse-splicing fitness was determined as 0.0517.
For the variant C82G A111G A120C C150A C169U U176G, the reverse-splicing fitness is 0.00877.
Under C82U A111G A120U A145C C150U U176G stands 0.00212; under C82G A111U A120C A145C C169G, 0.00986; under C82A A111C C169A U176A, 0.0171.
Under C82U A111C C150A stands 0.0255; under A111G A120C C169A, 0.0146.
In the case of C82A A111U A120G A145U C150A C169G U176G it was 0.00492; in that of A111C A120G C150G C169U, 0.0177.
C82U A111U A120U C150A C169A U176G: the reverse-splicing fitness was 0.00224.
Under A120G A145C C150G U176G stands 0.0061; under C82G A120G C150U U176C, 0.0192.
In the case of C82A A111U A120G A145C C150G C169A U176G it was 0.00554; in that of C82A A111U A120C A145G C150G U176G, 0.00733; in that of C82G A111U A145U C150U C169A U176G, 0.00678.
As to C82U A111G A120C A145C C150A U176A, the reverse-splicing fitness stood at 0.00938.
Under C82A A111C A120G A145C C169A stands 0.00659; under C82U A111U C150A U176G, 0.00896; under C82A A111G A120U A145G C150A C169A, 0.00676.
Under C82U A111G A120C A145U C169A U176G stands 0.00329; under C82G A111G A145G C150A C169G U176C, 0.0258.
In the case of C82A A111G A145G C169A U176G it was 0.00591; in that of C82U A111G A120C A145G C150G U176G, 0.0033; in that of C82U A111C A120U A145G C150G C169U U176C, 0.00661.
Take C82U A111G A120U C169A U176A: the reverse-splicing fitness is 0.0024.
In the case of C82U A120C U176G it was 0.00931; in that of C82G A111G A145U C150G C169G U176C, 0.00969; in that of C82U A111G A145G C150A U176A, 0.0328.
For C82U A120C A145C U176G, the reverse-splicing fitness is 0.00964.
Under C82U A111G A120G A145C C150U C169U stands 0.00745; under A120U C150U C169A U176C, 0.00368; under C82A A111G A120C A145U C150U C169U U176A, 0.0144.
In the case of C82A A120U A145U C150G U176A it was 0.00533; in that of C82A A111U A120G A145C C150U U176C, 0.0114.
Under C82A A111U A120C C150G U176G stands 0.00421.
For the variant C82A A111C A120U A145C C150A C169U U176G, the reverse-splicing fitness worked out at 0.00263.
In the case of C82U A111C A120C A145U C150A C169U it was 0.0101.
Under C82U A111C A120C C169A stands 0.00788.
